We go through 3 molecules from patent US12662541B2, “Antibody-drug conjugates against the receptor tyrosine kinase EphA5” (Rutgers, The State University of New Jersey, priority 2021, dated 2026).

By Kd is commonly meant the free concentration of one partner at which half of the binding sites on the other are occupied at equilibrium, for simple one-to-one binding. A low value points to a tighter complex.

The target of data set [1] is T1, EphA5 antigen (Homo sapiens, UniProt P54756).
T1 construct: purchased R and D systems 3036-A5
Put plainly: kd (1/s). How it is done:
(§1) Table printed on a drawing sheet, FIG. 19
(§2) Head of the field: kd (1/s)
(§3) The patent's description of the figure: FIG. 19 is a table illustrating the Multi-cycle kinetic parameters of chimeric (VH0/VK0) and humanized variants (tested as purified proteins) binding to EphA5 antigen as determined using the Biacore T200. The relative KD was calculated by dividing the KD of the humanized variant by that of the VH0VK0 (first row) assayed in the same experiment. […]
(§4) Where the first naming reader finds the target: description_of_the_figure: humanized variants (tested as purified proteins) binding to EphA5 antigen as determined using the Biacore T200

The target in data set [2] is T1, EphA5 antigen. Put plainly: KD (M). On the procedure: as §1
(§5) Head of the field: KD (M)
as §3, §4

For data set [3], the target named is T2, rhEphA5 antigen (Homo sapiens, UniProt P54756).
T2 construct: purchased R and D systems 3036-A5
The data set can be described thus: KD (M). How it is done: (§6) Table printed on a drawing sheet, FIG. 13
as §5
(§7) The patent's description of the figure: FIG. 13 is a table illustrating the single cycle kinetic parameters of chimeric (VH0/VK0) and humanized 11C12 variants (tested as cell culture supernatants) binding to rhEphA5 antigen as determined using the Biacore T200. The relative KD was calculated by dividing the KD of the humanized variant by that of the VH0/VK0 (top row) assayed in the same experiment. The variants marked with ‘*’ have KD values that are within two-fold of, or are better than, the chimeric antibody. The chimeric and selected variants marked in ‘#’ were identified as the main leads for purification. […]
(§8) Where the first naming reader finds the target: description_of_the_figure: humanized 11C12 variants (tested as cell culture supernatants) binding to rhEphA5 antigen as determined using the Biacore T200

The target in data set [4] is T1, EphA5 antigen. Put plainly: ka (1/Ms). How it is done:
as §1
(§9) Head of the field: ka (1/Ms)
as §3, §4

For a further data set, the system named is H226 cells (EphA5−). The data set can be described thus: Flow cytometry cell binding, H226 negative control cells. To be noted: from 10 μg/ml, three-fold three point dilution. Format: cell-based, human. On the procedure: (§10) A H460 cell line stably expressing EphA5 (provided by Rutgers) was used, alongside H226 cells as a negative control, to test for antibody binding in a flow cytometry assay. The cell lines were first assessed for target expression using 10 μg/ml of the murine 11C12 provided by Rutgers) and MolgG1 non-binging control (Biolegend, California, US). Goat anti-mouse Alexa Fluor 647 (Thermo Fisher, Loughborough, UK) was used for antibody detection.
(§11) For cell binding assays, both cell lines were resuspended in FACS buffer (PBS+1% BSA+0.1% sodium azide) and seeded in 96 well U bottom plates at 1×105 (100 μl) cells per well. The chimeric and six purified humanized variants were tested in the assay alongside the 11C12 murine positive control, MolgG1 and HulgG1 non-binding controls. Samples were prepared at a starting concentration of 10 μg/ml in FACS buffer and underwent a four-fold seven point serial dilution for testing with H460 cells and a three-fold three point serial dilution for the H226 cells. […] Median fluorescence intensity (MFI) was measured using an Attune N×T Flow Cytometer (Thermo Fisher, Loughborough, UK) and 10,000 gated events were acquired per sample. For data analysis, live cell populations were gated based on the forward and side scatter dot plot allowing the Alexa Fluor 647 MFI values to be measured in the RL1 channel.

The target in data set [5] is T3, H460 cell line stably expressing EphA5 (Homo sapiens, UniProt P54756).
T3 construct: endogenous in cells; host or cells: H460 human lung carcinoma cells (provided by Rutgers)
Put plainly: Flow cytometry cell binding, H460 cells. The following applies: from 10 μg/ml, four-fold seven point dilution. It counts as cell-based. How it is done:
as §10, §11
For orientation: In flow cytometry, cells or beads pass a laser one at a time.

Data set [6] deals with T2, rhEphA5 antigen. The data set can be described thus: ka (1/Ms). How it is done:
as §6, §9, §7, §8

Data set [7] concerns the target T2, rhEphA5 antigen. The data set can be described thus: Multi-cycle kinetic analysis (Biacore T200) of purified antibodies. It counts as binding. On the procedure: In order to assess the binding of the six lead humanized variants to rhEphA5 antigen, multi-cycle kinetic analysis (FIG. 68) was performed on purified material. Kinetic experiments were performed at 25° C. on a Biacore T200 running Biacore T200 Control software V2.0.1 and Evaluation software V3.0 (GE Healthcare, Uppsala, Sweden).
HBS-P+ (GE Healthcare, Uppsala, Sweden), supplemented with 1% BSA w/v (Sigma, Dorset, UK) was used as running buffer as well as for ligand and analyte dilutions. Purified lead antibodies were diluted to 0.5 μg/mL in running buffer and at the start of each cycle, loaded onto Fc2, Fc3 and Fc4 of an anti-human IgG CMS sensor chip (GE Healthcare, Little Chalfont, UK). Antibodies were captured at a flow rate of 10 μl/min to give an immobilization level (RL) of 50 RU. The surface was then allowed to stabilize.
Multi-cycle kinetic data was obtained using recombinant EphA5 as the analytes injected at a flow rate of 30 μl/min to minimize any potential mass transfer effects. A five point, three-fold dilution range from 1.11 nM to 270 nM of EphA5 was prepared in running buffer. For each concentration, the association phases were monitored for 210 seconds and the dissociation phase was measured for 900 seconds. Regeneration of the sensor chip surface was conducted between cycles using two injections of 3 M MgCl2. […]
Target sequence in this assay (P54756 25-573 limits assumed): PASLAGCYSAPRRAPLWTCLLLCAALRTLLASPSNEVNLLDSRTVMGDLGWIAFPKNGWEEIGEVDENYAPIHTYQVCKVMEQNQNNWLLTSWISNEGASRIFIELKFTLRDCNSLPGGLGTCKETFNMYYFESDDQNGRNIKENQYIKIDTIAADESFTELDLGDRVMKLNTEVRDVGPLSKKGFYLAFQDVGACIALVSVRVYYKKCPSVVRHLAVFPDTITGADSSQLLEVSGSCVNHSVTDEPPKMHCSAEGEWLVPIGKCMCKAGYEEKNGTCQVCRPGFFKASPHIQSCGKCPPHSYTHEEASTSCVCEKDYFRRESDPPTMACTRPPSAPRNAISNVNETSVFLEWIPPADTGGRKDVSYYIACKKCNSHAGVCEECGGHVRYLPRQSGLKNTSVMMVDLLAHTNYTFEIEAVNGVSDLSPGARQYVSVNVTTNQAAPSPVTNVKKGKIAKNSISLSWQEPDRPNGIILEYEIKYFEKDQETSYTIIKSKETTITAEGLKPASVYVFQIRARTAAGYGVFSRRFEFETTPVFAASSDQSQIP
Background: SPR reads the build-up and loss of mass on a sensor chip optically.

The nature of data set [8]: Thermal ramp stability (UNcle biostability platform, Sypro Orange and SLS). Format: physicochemical. The source says: Thermal ramp stability experiments (Tm and Tagg) are well established methods for ranking proteins and formulations for stability. A protein's denaturation profile provides information about its thermal stability and represents a structural ‘fingerprint’ for assessing structural and formulation buffer modifications. A widely used measure of the thermal structural stability of a protein is the temperature at which it unfolds from the native state to a denatured state. For many proteins, this unfolding process occurs over a narrow temperature range and the mid-point of this transition is termed ‘melting temperature’ or ‘Tm’. To determine the melting temperature of a protein, UNcle measures the fluorescence of Sypro Orange (which binds to exposed hydrophobic regions of proteins) as the protein undergoes conformational changes.
Samples for each variant were formulated in PBS and Sypro Orange at a final concentration of 1 mg/mL. […] Samples were subjected to a thermal ramp from 25-95° C., with a ramp rate of 0.3° C./minute and excitation at 473 nm. Full emission spectra were collected from 250-720 nm, and the area under the curve between 510-680 nm was used to calculate the inflection points of the transition curves (Tonset and Tm). Monitoring of static light scattering (SLS) at 473 nm allowed the detection of protein aggregation, and Tagg (onset of aggregation) was calculated from the resulting SLS profiles. Thermal stability values determined lie in a broad range from 57.9 to 69.6° C. (Tm1), 55.1 to 65.2° C. (Tonset) and 65.6 to 70.2° C. (Tagg) with the humanized leads generally showing improved profiles when compared to the chimeric antibody. […] All humanized antibodies appear to have a higher Tm1, Tonset and Tagg compared to the chimeric antibody.

Data set [9] addresses T2, rhEphA5 antigen. Put plainly: kd (1/s). On the procedure:
as §6, §2, §7, §8

T3 sequence (P54756 25-1037): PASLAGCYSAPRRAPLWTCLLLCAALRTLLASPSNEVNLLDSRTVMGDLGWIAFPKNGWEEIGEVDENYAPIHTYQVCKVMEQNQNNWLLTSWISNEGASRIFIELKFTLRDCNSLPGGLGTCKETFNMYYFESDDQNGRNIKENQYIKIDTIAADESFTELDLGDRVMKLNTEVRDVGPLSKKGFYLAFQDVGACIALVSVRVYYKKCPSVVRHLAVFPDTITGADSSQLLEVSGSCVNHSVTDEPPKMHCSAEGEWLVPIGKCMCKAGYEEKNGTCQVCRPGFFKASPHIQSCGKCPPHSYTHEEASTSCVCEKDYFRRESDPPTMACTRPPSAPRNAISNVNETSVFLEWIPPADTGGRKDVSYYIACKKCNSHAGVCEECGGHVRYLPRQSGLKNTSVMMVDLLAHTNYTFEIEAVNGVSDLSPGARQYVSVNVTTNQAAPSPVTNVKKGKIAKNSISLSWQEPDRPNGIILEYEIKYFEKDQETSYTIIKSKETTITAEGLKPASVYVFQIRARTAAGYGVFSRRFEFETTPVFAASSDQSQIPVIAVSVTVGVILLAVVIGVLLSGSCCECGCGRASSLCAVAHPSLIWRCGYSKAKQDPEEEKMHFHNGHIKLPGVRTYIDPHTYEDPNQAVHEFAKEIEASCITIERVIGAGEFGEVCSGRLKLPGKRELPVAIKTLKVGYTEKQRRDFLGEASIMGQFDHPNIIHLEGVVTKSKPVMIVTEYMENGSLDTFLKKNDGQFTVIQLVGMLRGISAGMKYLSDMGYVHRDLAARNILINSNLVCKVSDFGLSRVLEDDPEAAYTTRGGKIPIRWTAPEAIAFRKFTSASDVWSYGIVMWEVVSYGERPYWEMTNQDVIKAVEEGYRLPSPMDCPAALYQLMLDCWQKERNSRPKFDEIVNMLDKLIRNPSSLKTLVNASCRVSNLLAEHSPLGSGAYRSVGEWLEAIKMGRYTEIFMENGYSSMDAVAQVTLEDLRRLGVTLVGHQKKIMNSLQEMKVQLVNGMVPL

B1: VH3/VK4: humanized anti-EphA5 antibody, VH SEQ ID NO:4, VL SEQ ID NO:12; lead variant (antibody, V domains shown)
VH: EVQLVESGGGLVQPGGSLKLSCAASGFTFSTFGIHWVRQAPGKGLEWVAYISGASTTIYYADTVKGRFTISRDNSKNTLYLQMNSLRSEDTAMYYCARYGTSFPYGLDYWGQGTLVTVSS
VL: DIVMTQSPDSLAVSLGERATINCKSSQSVDYDGDSYMNWYQQKPGKAPKLLIYGASNLESGIPDRFSGSGSGTDFTLTISRLEPEDAASYYCQQSNEDPFTFGQGTKLEIK
For B1, the “kd” value with EphA5 antigen [1] worked out at 0.00142 s⁻¹. Moreover, the Kd with EphA5 antigen [2] is 1.08 nM; with rhEphA5 antigen [3], 0.956 nM. In addition, the ka in the data set with EphA5 antigen [4] turned out to be 1.31e+06 M⁻¹ s⁻¹.

B2: 11C12: anti-human EphA5 monoclonal murine antibody, parental and positive control (antibody, V domains shown)
VH: EVTLKESGGGLVQPGGSRKLSCAASGFTFSTFGIHWVRQAPEKGLEWVAYISGASTTIYYADTVKGRFTISRDNPKNTLFLQMTSLRSEDTAMYYCARYGTSFPYGLDYWGQGTSVTVSS
VL: DIVMTQSPGSLAVSLGQRATISCKASQSVDYDGDSYMNWYQQKPGQPPKLLIYGASNLESGIPARFSGSGSGTDFTLNIHPVEEEDAASYYCQQSNEDPFTFGSGTKLEIK
As to B2, the “binding to H226 (EphA5 negative) cells” value in the data set with H226 cells (EphA5−) is recorded as “no binding”. The “binding to H460 (EphA5+) cells, MFI dose response” value in data set [5] is “bound to the positive cell line in a concentration dependent manner”.

B3: VH0/VK0: chimeric antibody with murine 11C12 variable regions (SEQ ID NO:1, 8) and human IgG1/kappa constant regions (antibody, V domains shown)
VH: EVTLKESGGGLVQPGGSRKLSCAASGFTFSTFGIHWVRQAPEKGLEWVAYISGASTTIYYADTVKGRFTISRDNPKNTLFLQMTSLRSEDTAMYYCARYGTSFPYGLDYWGQGTSVTVSS
VL: DIVMTQSPGSLAVSLGQRATISCKASQSVDYDGDSYMNWYQQKPGQPPKLLIYGASNLESGIPARFSGSGSGTDFTLNIHPVEEEDAASYYCQQSNEDPFTFGSGTKLEIK
modifications: human IgG1/kappa constant regions
For B3, the “ka” value with rhEphA5 antigen [6] was determined as 1.15e-06 M⁻¹ s⁻¹. In the data set with rhEphA5 antigen [7] (1:1 model fit), this molecule returned an RMAX of 47.8. Also, in the data set with rhEphA5 antigen [7] (1:1 model, binding to EphA5), the “kd” value is 0.0015 s⁻¹. Also, in [8], the “Average Tm2 (° C.)” value was determined as 65.83 °C; the “Average Tonset (° C.)” value worked out at 55.1 °C; the “transitions detected in thermal unfolding” value is “two transitions (Tm1 and Tm2)”. Besides, the “Average Tm1 (° C.)” value in data set [8] (1 mg/mL in PBS, ramp 25-95° C.) is 57.9 °C. Moreover, in [8] (SLS at 473 nm), the “Average Tagg 473 (° C.)” value is 65.6 °C. The “Tm2 (° C.)” value in data set [8] (single replicate) was determined as 65.83 °C. Moreover, in the data set with rhEphA5 antigen [9], the “kd” value is 0.00153 s⁻¹.
